In the RNAGym collection of RNA variant scans (doi:10.1093/molbev/msab373):

B1: Azoarcus group I ribozyme (parent)
chain: GUGCCUUGCGCCGGGAAACCACGCAAGGGAUGGUGUCAAAUUCGGCGAAACCUAAGCGCCCGCCCGGGCGUAUGGCAACGCCGAGCCAAGCUUCGGCGCCUGCGCCGAUGAAGGUGUAGAGACUAGACGGCACCCACCUAAGGCAAACGCUAUGGUGAAGGCAUAGUCCAGGGAGUGGCGAAAGUCACACAAACCGG

Variants of: B1
Test: reverse-splicing fitness (ratio to wild type); higher = more active; in vitro selection; Mg2+ level not given
In short: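 An in vitro group I ribozyme library with randomized positions was T7-transcribed and gel-purified. In triplicate, 10 pmol RNA in EPPS pH 7.5 was reacted with 50 pmoles of a 30-nt RNA substrate for 1 h at 37 °C across several added MgCl2 levels (1–48 mM), then stopped with EDTA. Products were reverse transcribed from a substrate-complementary primer, PCR-amplified and sequenced (HiSeq 4000). Fitness is a variant's read proportion after selection over that before, normalised to wild type.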
Work on C82U A120U A145C yielded a reverse-splicing fitness of 0.153.
In the case of C82U A120U A145C C150A, the reverse-splicing fitness is reported as 0.00884.
Work on C82U A120U A145C C150A C169A yielded a reverse-splicing fitness of 0.00144.
C82U A120U A145C C150A C169A U176A gave a reverse-splicing fitness of 0.00177.
C82U A120U A145C C150A C169A U176C showed a reverse-splicing fitness of 0.00171.
For C82U A120U A145C C150A C169A U176G, the reverse-splicing fitness was 0.00165.
With C82U A120U A145C C150A C169G the reverse-splicing fitness was 0.00203.
For C82U A120U A145C C150A C169G U176A, the reverse-splicing fitness was 0.00223.
C82U A120U A145C C150A C169G U176C showed a reverse-splicing fitness of 0.00196.
For C82U A120U A145C C150A C169G U176G, the reverse-splicing fitness was 0.00161.
Variant C82U A120U A145C C150A C169U has a reverse-splicing fitness of 0.00232.
In the case of C82U A120U A145C C150A C169U U176A, the reverse-splicing fitness is reported as 0.00218.
Work on C82U A120U A145C C150A C169U U176C yielded a reverse-splicing fitness of 0.00195.
For C82U A120U A145C C150A C169U U176G, the reverse-splicing fitness was 0.00151.
Work on C82U A120U A145C C150A U176A yielded a reverse-splicing fitness of 0.00377.
With C82U A120U A145C C150A U176C the reverse-splicing fitness was 0.00532.
In the case of C82U A120U A145C C150A U176G, the reverse-splicing fitness is reported as 0.00282.
With C82U A120U A145C C150G the reverse-splicing fitness was 0.0193.
Work on C82U A120U A145C C150G C169A yielded a reverse-splicing fitness of 0.00211.
In the case of C82U A120U A145C C150G C169A U176A, the reverse-splicing fitness is reported as 0.00201.
Work on C82U A120U A145C C150G C169A U176C yielded a reverse-splicing fitness of 0.00196.
Work on C82U A120U A145C C150G C169A U176G yielded a reverse-splicing fitness of 0.00188.
With C82U A120U A145C C150G C169G the reverse-splicing fitness was 0.00257.
Work on C82U A120U A145C C150G C169G U176A yielded a reverse-splicing fitness of 0.00206.
With C82U A120U A145C C150G C169G U176C the reverse-splicing fitness was 0.0019.
C82U A120U A145C C150G C169G U176G showed a reverse-splicing fitness of 0.00188.
For C82U A120U A145C C150G C169U, the reverse-splicing fitness was 0.00275.
With C82U A120U A145C C150G C169U U176A the reverse-splicing fitness was 0.00247.
With C82U A120U A145C C150G C169U U176C the reverse-splicing fitness was 0.00224.
C82U A120U A145C C150G C169U U176G showed a reverse-splicing fitness of 0.00191.
C82U A120U A145C C150G U176A showed a reverse-splicing fitness of 0.0055.
For C82U A120U A145C C150G U176C, the reverse-splicing fitness was 0.00864.
In the case of C82U A120U A145C C150G U176G, the reverse-splicing fitness is reported as 0.00242.
C82U A120U A145C C150U gave a reverse-splicing fitness of 0.0391.
Work on C82U A120U A145C C150U C169A yielded a reverse-splicing fitness of 0.00167.
C82U A120U A145C C150U C169A U176A gave a reverse-splicing fitness of 0.00242.
C82U A120U A145C C150U C169A U176C showed a reverse-splicing fitness of 0.00189.
C82U A120U A145C C150U C169A U176G showed a reverse-splicing fitness of 0.00165.
In the case of C82U A120U A145C C150U C169G, the reverse-splicing fitness is reported as 0.00257.
Work on C82U A120U A145C C150U C169G U176A yielded a reverse-splicing fitness of 0.00259.
For C82U A120U A145C C150U C169G U176C, the reverse-splicing fitness was 0.00188.
With C82U A120U A145C C150U C169G U176G the reverse-splicing fitness was 0.00153.
C82U A120U A145C C150U C169U showed a reverse-splicing fitness of 0.00331.
For C82U A120U A145C C150U C169U U176A, the reverse-splicing fitness was 0.00232.
Variant C82U A120U A145C C150U C169U U176C has a reverse-splicing fitness of 0.00187.
Work on C82U A120U A145C C150U C169U U176G yielded a reverse-splicing fitness of 0.0015.
With C82U A120U A145C C150U U176A the reverse-splicing fitness was 0.0114.
C82U A120U A145C C150U U176C gave a reverse-splicing fitness of 0.0162.
With C82U A120U A145C C150U U176G the reverse-splicing fitness was 0.00482.
Variant C82U A120U A145C C169A has a reverse-splicing fitness of 0.00174.
C82U A120U A145C C169A U176A gave a reverse-splicing fitness of 0.00163.
C82U A120U A145C C169A U176C gave a reverse-splicing fitness of 0.0016.
With C82U A120U A145C C169A U176G the reverse-splicing fitness was 0.00159.
For C82U A120U A145C C169G, the reverse-splicing fitness was 0.00426.
C82U A120U A145C C169G U176A gave a reverse-splicing fitness of 0.00282.
With C82U A120U A145C C169G U176C the reverse-splicing fitness was 0.00167.
With C82U A120U A145C C169G U176G the reverse-splicing fitness was 0.00143.
For C82U A120U A145C C169U, the reverse-splicing fitness was 0.00535.
For C82U A120U A145C C169U U176A, the reverse-splicing fitness was 0.00253.
C82U A120U A145C C169U U176C showed a reverse-splicing fitness of 0.00289.
In the case of C82U A120U A145C C169U U176G, the reverse-splicing fitness is reported as 0.00172.
Work on C82U A120U A145C U176A yielded a reverse-splicing fitness of 0.0354.
Work on C82U A120U A145C U176C yielded a reverse-splicing fitness of 0.0503.
For C82U A120U A145C U176G, the reverse-splicing fitness was 0.011.
Work on C82U A120U A145G yielded a reverse-splicing fitness of 0.167.
For C82U A120U A145G C150A, the reverse-splicing fitness was 0.0257.
For C82U A120U A145G C150A C169A, the reverse-splicing fitness was 0.00483.
Work on C82U A120U A145G C150A C169A U176A yielded a reverse-splicing fitness of 0.00482.
For C82U A120U A145G C150A C169A U176C, the reverse-splicing fitness was 0.00294.
Variant C82U A120U A145G C150A C169A U176G has a reverse-splicing fitness of 0.00241.
C82U A120U A145G C150A C169G gave a reverse-splicing fitness of 0.00351.
Variant C82U A120U A145G C150A C169G U176A has a reverse-splicing fitness of 0.00525.
For C82U A120U A145G C150A C169G U176C, the reverse-splicing fitness was 0.00372.
Work on C82U A120U A145G C150A C169G U176G yielded a reverse-splicing fitness of 0.00193.
Work on C82U A120U A145G C150A C169U yielded a reverse-splicing fitness of 0.00334.
In the case of C82U A120U A145G C150A C169U U176A, the reverse-splicing fitness is reported as 0.0038.
With C82U A120U A145G C150A C169U U176C the reverse-splicing fitness was 0.00329.
Work on C82U A120U A145G C150A C169U U176G yielded a reverse-splicing fitness of 0.00199.
Variant C82U A120U A145G C150A U176A has a reverse-splicing fitness of 0.0113.
For C82U A120U A145G C150A U176C, the reverse-splicing fitness was 0.0141.
For C82U A120U A145G C150A U176G, the reverse-splicing fitness was 0.00354.
In the case of C82U A120U A145G C150G, the reverse-splicing fitness is reported as 0.0229.
Variant C82U A120U A145G C150G C169A has a reverse-splicing fitness of 0.00721.
Variant C82U A120U A145G C150G C169A U176A has a reverse-splicing fitness of 0.0107.
